{"source": "patent US7193044B1", "about": "“Compounds and methods for regulating apoptosis, and methods of making and screening for compounds that regulate apoptosis” (Immunogen, Inc., priority 2000, dated 2007)", "molecules": {"B1": {"name": "BAD S155A: mutant of shorter murine BAD, serine corresponding to Ser155 substituted with alanine; HA- or GST-tagged (protein)", "chain": "MFQIPEFEPSEQEDASATDRGLGPSLTEDQPGPYLAPGLLGSNIHQQGRAATNSHHGGAGAMETRSRHSSYPAGTEEDEGMEEELSPFRGRSRSAPPNLWAAQRYGRELRRMADEFEGSFKGLPRPKSAGTATQMRQSAGWTRIIQSWWDRNLGKGGSTPSQ", "modifications": "left off: small tags and cut ends", "notes": "mutant of shorter murine BAD, serine corresponding to Ser155 substituted with alanine; HA- or GST-tagged"}}, "key": {"[1]": {"test_system": "BAD Ser155 phosphorylation in HeLa cells", "test": "BAD phosphorylation in HeLa cells (western blot band-shift / anti-phospho-Ser155 antibody)", "format": "cell-based, human", "method": "A mammalian expression vector encoding mutant HA-BAD S155A, derived from the shorter murine BAD of SEQ ID NO:3, was constructed. HA-BAD S155A has an amino acid sequence wherein the serine at a position corresponding to Ser155 is substituted with alanine. A western blot was performed on WCL prepared from cells expressing the shorter murine BAD (SEQ ID NO:3), HA-BAD S112A, HA-BAD S136A, or HA-BAD S155A, and probed with anti-HA antibody.\nA western blot analysis, probed with anti-HA antibody, was performed on lysates produced from the Forskolin treated and untreated (control) cells to determine whether Forskolin could induce the phosphorylation BAD or mutant BAD.\nHeLa cells transiently expressing HA-BAD, HA-BAD S155A, HA-BAD S112A/S136A, or HA-BAD S112A/S136A/S155A were treated with Forskolin or a buffer control.\nThe HA-BAD S112A/S136A double mutant was transiently expressed in HeLa cells, and transfected cell cultures were treated with each of the GPCR ligands, individually and as a group. A western blot analysis, probed with anti-HA antibody, was performed on lysates produced from the treated and untreated (negative control) cells. […] Forskolin (FK) and no treatment (−) were positive and negative controls, respectively (FIG. 6(a), […], respectively).\nNon-transfected HeLa cells were treated with Forskolin or L-epinephrine, followed by western blot analysis of cell lysates using anti-BAD antibodies.\nTransformants were treated with L-epinephrine, then lysed and subjected to anti-HA western blot analysis.\nTo further test whether phosphorylation of Ser155 is dependent on the PI 3-kinase/Akt pathway, HeLa cells were transfected with the mutant HA-BAD S155A and pretreated with Wortmannin, an inhibitor of PI 3-kinase. These cells were then stimulated with epidermal growth factor (EGF), lysed and analyzed by western blot analysis.\nFor immunoprecipitation of all HA-BAD species, 1 μg of the anti-HA antibody was added to the cell lysates, and incubated at 4° C. for one hour. Protein G agarose (Pierce) was then added (50 μl/fraction of 50% slurry) and followed by a one hour incubation at 4° C. Beads were washed with RIPA buffer, boiled in loading buffer (2% SDS, 10% glycerol, 5% β-ME, 60 mM Tris, pH 6.8, 0.002% Bromophenol Blue) and loaded onto polyacrylamide gels. After electrophoresis, proteins were transferred to nitrocellulose membranes, and blots blocked in western wash buffer (40 mM Tris, pH 8.0, 150 mM NaCl, 0.2% NP-40) with 5% BSA for one hour at room temperature. Blots were incubated with primary antibody diluted in western wash buffer with 3% BSA at room temperature for 1–2 hours, washed with western wash buffer and incubated with secondary HRP-coupled antibody diluted in western wash buffer with 1.5% BSA, and washed extensively. Polypeptides were detected with the ECL chemiluminescence according to the manufacturers instructions (Amersham)."}, "[2]": {"test_system": "HeLa cells", "test": "Beta-gal ELISA apoptosis assay in transfected HeLa cells", "format": "cell-based, human", "conditions": "HeLa cells, 24 hours post-transfection", "method": "Because BAD Ser155 phosphorylation, like Ser136 phosphorylation, prevents BAD from binding to Bcl-XL (FIG. 1), it was possible that by analogy, Ser155 dephosphorylation promotes cell death. To test this idea, HeLa cells were co-transfected with BAD or various BAD serine mutants and a β-gal reporter plasmid. Twenty-four hours post-transfection, cell viability was analyzed by β-gal ELISA.\nTo test this idea, HeLa cells were again co-transfected with BAD or various BAD serine mutants and a β-gal reporter plasmid. Forskolin was then added to half of the cultures while the other half was left untreated. Beta-gal ELISAs were performed 24 hours post transfection. […] Thus, phosphorylation of Ser155 rescues cells from BAD-induced apoptosis, while substitution of Ser155 with a nonphosphorylatable residue results in increased cell death and the failure of cells to be protected from induced PKA activity.\nBeta-gal ELISA assays were performed using the β-gal ELISA system from Boehringer Mannheim, according to manufacture's instructions. Cells were transfected with BAD (or BAD mutant) and β-gal in a ratio of 5:1. The transfected cells were trypsinized and distributed into 96-well tissue culture plates. Twenty-four hours after transfection, cell extracts were obtained by lysing the cells in lysis buffer. Cell extracts (200 μl) were then added to anti-β-gal-coated microtiter plates (MTP). The MTPs were foil-covered and incubated for one hour at 37° C. Solutions were then decanted and the MTPs were washed, followed by the addition of 200 μl of anti-β-gal-DIG working solution, and incubation for an additional hour as described above. Solutions were again decanted, the MTPs washed and 200 μl of DIG-POD working solution were added. The MTPs were incubated for another hour at 37° C., the solution decanted, and the wells washed. 200 μl of substrate with enhancer were added to each well and incubated at room temperature until color development. The β-gal activity was measured by the absorbance of the sample at […]. Data were based on triplicate wells with standard deviations calculated."}}, "note": "Entries after “also recorded” stand apart in the source; their conditions may differ."}
{"molecule": "B1", "values": [{"measurement": "band-shift (phosphorylation) of expressed BAD construct in response to L-epinephrine", "setting": "[1]; HeLa cells", "result": "significantly reduced"}, {"measurement": "reactivity with anti-phospho-Ser155 specific BAD antibody", "setting": "[1]; HeLa cells treated with Forskolin", "result": "failure of the anti-phospho-Ser155 specific BAD antibody to react"}, {"measurement": "growth factor (EGF)- and serum (FCS)-induced phosphorylation of expressed BAD mutant", "setting": "[1]; HeLa cells, anti-HA western blot", "result": "dramatically reduced"}, {"measurement": "phosphorylation of expressed BAD mutant", "setting": "[1]; HeLa cells, anti-HA western blot, compared to single mutation of Ser112 or Ser136", "result": "dramatically reduced the phosphorylation of the murine BAD in HeLa cells"}, {"measurement": "band-shift (phosphorylation) of expressed BAD construct in response to L-epinephrine", "setting": "[1]; HeLa cells, listed as HA-BAD S155A", "result": "limited response"}, {"measurement": "effect of expressed BAD mutant on cellular survival / cell death", "setting": "[2]", "result": "greatest effect on cellular survival, with a significant increase in cell death compared to the control; also recorded: enhanced apoptotic activity compared with the wild-type mammalian BAD"}]}
